# T1: RHAU53 peptide (DHX36/RHAU residues 53-106 as printed) (UniProt Q9H2U1 SEQ:1-53)
# T1 sequence: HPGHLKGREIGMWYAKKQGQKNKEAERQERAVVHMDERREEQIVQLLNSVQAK
# Target: T1, RHAU53 peptide (DHX36/RHAU residues …)
# Assay: EMSA; 80 nM RHAU53, 2 nM FAM-D-TERRA; 25 mM Tris-HCl pH 7.5, 150 mM KCl, 1 mM MgCl2, 37 C; gel with 40 mM KOAc; complex formation inhibited by L-RNA Ap3-7 (SEQ 19, binds the TERRA RNA) with IC50 937.1±1.7 nM
# Details: tags: peptide obtained from OriGene; label: 5'FAM; G4 (3 G-quartets, UUA loops)
# Experimental: L-RNA Ap3-7 and S′FAM labelled D-RNA TERRA were heated at 75° C. for 3 minutes and cooled down separately. Then, reaction mixtures containing 2 nM 5′FAM labelled D-TERRA, 25 mM Tris-HCl (pH 7.5), 150 mM KCl and 1 mM MgCl₂ were prepared. Corresponding amount of L-Ap3-7 and 80 nM RHAU53 were premixed, then added to the specific samples and incubated at 37° C. for 30 minutes. The final samples were loaded onto a native PAGE (6%, 49:1), containing 40 mM KOAc, 1 mM MgCl₂ and 0.5×TBE (pH 8.3), and run at 30 mA for 75 minutes.
# To study if L-Ap3-7 can compete with rG4-binding protein and inhibit the D-TERRA rG4-protein complex formation, the inventors have tested it with RHAU53 peptide. Particularly, L-RNA Ap3-7 and S′FAM labelled D-RNA TERRA were heated at 75° C. for 3 minutes and cooled down separately. Then, reaction mixtures containing 2 nM 5′FAM labelled D-TERRA, 25 mM Tris-HCl (pH 7.5), 150 mM KCl and 1 mM MgCl₂ were prepared. Corresponding amount of L-Ap3-7 and 80 nM RHAU53 were premixed, then added to the specific samples and incubated at 37° C. for 30 minutes. The final samples were loaded onto a native PAGE (6%, 49:1), containing 40 mM KOAc, 1mM MgCl₂ and 0.5 X TBE (pH 8.3), and run at 30 mA for 75 minutes. […]
binder,measurement,value
UUAGGGUUAGGGUUAGGGUUAGGG (ssRNA) [D-TERRA rG4],binding result,binds
